Among the data in patent publication US20240239870A1 (published 2024) are ΔS values, retold here.

In assay [1] the target is T1, human PCSK9 (proprotein convertase subtilisin kexin type 9) (human, UniProt Q8NBP7 31-692, biotinylated in the BLI assay (site not stated)).
T1 construct: Immobilized directly (SPR), biotinylated on streptavidin tips (BLI), recombinant from baculovirus (FRET); also called hPCSK9
Kind of assay: ITC, 37 C, average of 3 experiments. Here is the method: Solution phase binding was measured in 25 mM HEPES, pH 7.41, 150 mM NaCl at 37° C.
Background: In ITC the heat of successive injections is recorded.

Assay [2] deals with T1, human PCSK9 (proprotein convertase …). Kind of assay: ITC, 37 C.

T1 sequence (Q8NBP7 31-692 limits assumed): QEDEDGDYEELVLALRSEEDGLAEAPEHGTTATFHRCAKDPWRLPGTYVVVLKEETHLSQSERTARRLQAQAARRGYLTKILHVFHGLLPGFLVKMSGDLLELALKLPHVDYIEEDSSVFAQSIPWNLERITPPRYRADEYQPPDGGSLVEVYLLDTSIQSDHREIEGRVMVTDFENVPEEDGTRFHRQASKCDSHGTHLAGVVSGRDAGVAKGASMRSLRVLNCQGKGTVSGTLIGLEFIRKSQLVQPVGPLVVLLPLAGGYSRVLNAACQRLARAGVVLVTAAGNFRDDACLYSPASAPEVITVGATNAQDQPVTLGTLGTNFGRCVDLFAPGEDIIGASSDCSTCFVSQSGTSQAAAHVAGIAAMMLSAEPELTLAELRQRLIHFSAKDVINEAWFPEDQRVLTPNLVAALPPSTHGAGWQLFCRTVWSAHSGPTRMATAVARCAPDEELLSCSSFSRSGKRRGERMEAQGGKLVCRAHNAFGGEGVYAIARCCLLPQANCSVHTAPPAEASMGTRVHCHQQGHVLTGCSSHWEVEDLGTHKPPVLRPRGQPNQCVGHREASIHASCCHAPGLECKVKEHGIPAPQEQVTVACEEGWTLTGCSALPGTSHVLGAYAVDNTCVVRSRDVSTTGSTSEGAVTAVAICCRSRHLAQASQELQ

B1: ATI001174 [2013E01-non His tagged Cys mut], pegylated (designed binder)
chain: MGVSDVPRDLEVVAATPTSLLISWVPPSDDYGYYRITYGETGGNSPVQEFTVPIGKGTATISGLKPGVDYTITVYAVEFPWPHAGYYHRPISINYRTEIEKPCQ
modifications: pegylated via the cysteine of the EIEKPCQ tail (asterisk in Table 5)
notes: PEGylated, non His tagged cysteine mutant of 2013E01; also called ATI1174
With B1, in assay [1], the ΔS was -55.8 cal/mol ° C.

B2: anti-PCSK9 Adnectin 2013E01 (designed binder)
chain: MGVSDVPRDLEVVAATPTSLLISWVPPSDDYGYYRITYGETGGNSPVQEFTVPIGKGTATISGLKPGVDYTITVYAVEFPWPHAGYYHRPISINYRTEIDKPSQHHHHHH
notes: also called ATI001081
For B2, in assay [2], the ΔS was -45.4 cal/mol ° C.
